9 molecules from patent US20220017589A1 (BEIJING QL BIOPHARMACEUTICAL, published 2022) can be followed below.

T1: human GFRAL (human, UniProt Q6UXV0 19-394)
T1 sequence (looked up): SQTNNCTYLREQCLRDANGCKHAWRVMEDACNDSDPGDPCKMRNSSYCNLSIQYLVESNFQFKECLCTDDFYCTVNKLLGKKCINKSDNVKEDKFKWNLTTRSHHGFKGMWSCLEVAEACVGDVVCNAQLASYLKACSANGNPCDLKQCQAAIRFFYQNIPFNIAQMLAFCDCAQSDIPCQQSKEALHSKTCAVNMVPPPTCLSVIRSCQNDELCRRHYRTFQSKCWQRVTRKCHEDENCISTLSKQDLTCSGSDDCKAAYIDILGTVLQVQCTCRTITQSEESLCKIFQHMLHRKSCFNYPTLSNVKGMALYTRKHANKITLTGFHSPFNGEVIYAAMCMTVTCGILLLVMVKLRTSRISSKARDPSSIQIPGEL

B1: MLC105 (ligand)
chain: HGEGTFTSDVSSYLEEQAAKEFIAWLVRGGGGAQPGAQPGAQPGAQPCQAPGAQPGAQPGAQPGQEPGAQPGQEPGAQPGQEPGAQPGQEPGAQPGQEPGAQPGQEPGAQPARQGDHCPLGPGRCCRLHTVRASLEDLGWADWVLSPREVQVTMCIGACPSQFRAANLHAQIKTSLHRLKPDTVPAPCCVPASYNPMVLIQKTDTGVSLQTYDDLLAKDCHCI
modifications: Moiety B (HOOC-(CH2)16-CO-gGlu-2XADO-EDA-CO-CH2) on 17C of Linker (48C of fusion polypeptide)
B2: MLC126 (ligand)
chain: B1 chain with C48G, Q49A, A50Q, G104C
modifications: Moiety B (HOOC-(CH2)16-CO-gGlu-2XADO-EDA-CO-CH2) on 73C of Linker (104C of fusion polypeptide)
B3: MLC107 (ligand)
chain: B1 chain with C48G, Q49A, A50Q, G56C, A57Q, Q58A
modifications: Moiety B (HOOC-(CH2)16-CO-gGlu-2XADO-EDA-CO-CH2) on 25C of Linker (56C of fusion polypeptide)
B4: MLC089 (ligand)
chain: B1 chain with C48G, Q49A, A50Q, A69Q, Q70C
modifications: Moiety B (HOOC-(CH2)16-CO-gGlu-2XADO-EDA-CO-CH2) on 39C of Linker (70C of fusion polypeptide)
B5: MLC111 (ligand)
chain: B1 chain with C48G, Q49A, A50Q, E82C, A85Q, Q86E
modifications: Moiety B (HOOC-(CH2)16-CO-gGlu-2XADO-EDA-CO-CH2) on 51C of Linker (82C of fusion polypeptide)
B6: MLC093 (ligand)
chain: B1 chain with C48G, Q49A, A50Q, G64C
modifications: Moiety B (HOOC-(CH2)16-CO-gGlu-2XADO-EDA-CO-CH2) on 33C of Linker (64C of fusion polypeptide)
B7: MLC087 (ligand)
chain: B1 chain with C48G, Q49A, A50Q, G72C
modifications: Moiety B (HOOC-(CH2)16-CO-gGlu-2XADO-EDA-CO-CH2) on 41C of Linker (72C of fusion polypeptide)
B8: MLC122 (ligand)
chain: B1 chain with G36C, A37Q, Q38A, C48G, Q49A, A50Q
modifications: Moiety B (HOOC-(CH2)16-CO-gGlu-2XADO-EDA-CO-CH2) on 5C of Linker (36C of fusion polypeptide)
B9: MLC123 (ligand)
chain: B1 chain with C48G, Q49A, A50Q, A109Q, Q110C
modifications: Moiety B (HOOC-(CH2)16-CO-gGlu-2XADO-EDA-CO-CH2) on 79C of Linker (110C of fusion polypeptide)

Positions count from the first letter of the chain named.

One experiment has as its target T1, human GFRAL. Kind of experiment: cell-based or functional assay.
Take B1: the “GDF15 activity (EC50, pM, 1% HSA)” value turned out to be 55.5 pM.
For B2, the “GDF15 activity (EC50, pM, 1% HSA)” value came to 1670 pM.
In the case of B3, the “GDF15 activity (EC50, pM, 1% HSA)” value came to 58 pM.
Still for that read-out and setting: the figure for B4 is 66.2 pM; for B5 it is 194 pM; for B6 it is 67.6 pM.
Same read-out and setting: the figure for B7 is 49.2 pM; for B8 it is 70.2 pM.
The same measure, in the same setting: the figure for B9 is 1360 pM.

In a further experiment the target is T2, human GLP-1 receptor (human, UniProt P43220 24-463). Kind of experiment: cell-based or functional assay.
For the molecule B1, the “GLP-1 activity (EC50, pM, 1% HSA)” value is 168 pM.
On the same count and under the same terms, the figure for B2 is 9.67 pM; for B3 it is 39.9 pM; for B4 it is 24.4 pM.
Same read-out and setting: the figure for B5 is 7.52 pM.
Take B6: the “GLP-1 activity (EC50, pM, 1% HSA)” value turned out to be 27.3 pM.
Still for that read-out and setting: the figure for B7 is 24.4 pM; for B8 it is 434 pM.
For the molecule B9, the “GLP-1 activity (EC50, pM, 1% HSA)” value is 9.53 pM.

A further experiment addresses T1, human GFRAL. The experiment in a line: cell-based or functional assay. The source holds these as a separate data set.
As to B1, the “GDF15 activity (EC50, pM)” value was found to be 50 pM.
On the same count and under the same terms, the figure for B3 is 59.3 pM; for B4 it is 42.9 pM; for B5 it is 54.9 pM.
Take B6: the “GDF15 activity (EC50, pM)” value was 54.8 pM.
On the same count and under the same terms, the figure for B7 is 23.8 pM.

The next experiment deals with T2, human GLP-1 receptor. The experiment in a line: cell-based or functional assay. This is another data set of the same source.
For the molecule B1, the “GLP-1 activity (EC50, pM)” value stood at 10 pM.
The same measure, in the same setting: the figure for B3 is 1.1 pM; for B4 it is 1.2 pM.
Still for that read-out and setting: the figure for B5 is 11 pM; for B6 it is 1.4 pM; for B7 it is 1.4 pM.
